Data taken from US20060034833A1 (published 2006).

B5: mouse IFN-gamma (ligand, UniProt P01580 23-155, looked up)
chain: HGTVIESLESLNNYFNSSGIDVEEKSLFLDIWRNWQKDGDMKILQSQIISFYLRLFEVLKDNQAISNNISVIESHLITTFFSNSKAKKDAFMSIAKFEVNNPQVQRQAFNELIRVVHQLLPESSLRKRKRSRC
notes: Used biotinylated (biotinamidocaproic acid 3-sulfo N-hydroxysuccinimide ester) in the assays; also called mouse IFN-γ; biotinylated mouse IFN-γ

Assays:
human IFN-gamma [1] = target: T1, human IFN-gamma (human, UniProt P01579 24-166); assay: cell-based or functional assay
T1 sequence (looked up): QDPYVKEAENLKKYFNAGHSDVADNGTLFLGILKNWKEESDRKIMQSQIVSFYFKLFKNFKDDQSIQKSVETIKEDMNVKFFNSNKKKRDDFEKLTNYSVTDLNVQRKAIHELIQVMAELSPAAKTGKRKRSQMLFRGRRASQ

human IFN-gamma [2] = target: T1, human IFN-gamma; assay: competition ELISA: VHH pre-incubated with biotinylated human IFN-γ, coated human IFN-γ receptor
Method: Mouse or human IFN-γ receptor was coated at a concentration of 1-2 μg/ml overnight at 4° C. Plates were washed 5 times with PBS/0.05% Tween-20. Wells were blocked with 1% caseine overnight at 4° C. VHH was pre-incubated with 20 ng biotinylated human or mouse IFN-γ for 30 minutes at room temperature. The mixture was applied to the wells and incubated for 1 hr at room temperature. Detection was performed using Extravidin-AP and pNPP as substrate. Plates were read at 405 nm after 30 minutes incubation at room temperature. Abcam AB 7812 polyclonal antibody was used as a positive control showing a dosis-dependent inhibition of human IFN-γ/IFN-γ receptor as presented in FIG. 7.
As presented in Table 6, a dose-dependent inhibition assay to determine the IC50 was performed for representative clones of each sequence family.

[3] = target: T2, mouse IFN-γ receptor (IFN-γ R1/Fc) (mouse, UniProt P15261 26-253, limits assumed); assay: ELISA: biotinylated mouse IFN-γ on coated mouse IFN-γ R1/Fc, Extravidin-AP
T2 construct: Bought Fc fusion, coated on plates; not shown: Fc part of the bought fusion; not described
T2 sequence (looked up): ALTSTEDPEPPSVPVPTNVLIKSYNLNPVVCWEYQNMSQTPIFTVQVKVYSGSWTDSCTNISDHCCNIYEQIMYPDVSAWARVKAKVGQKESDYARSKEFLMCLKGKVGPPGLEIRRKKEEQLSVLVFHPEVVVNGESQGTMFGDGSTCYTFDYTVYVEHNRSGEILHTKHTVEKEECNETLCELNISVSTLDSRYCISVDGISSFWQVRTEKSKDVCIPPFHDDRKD
Method: 96-well microtiter plates were coated with human IFN-γ receptor (IFN-γ R1 (R&D Systems, Cat Nr: 673-IR/CF) or mouse IFN-γ receptor (IFN-γ R1/Fc (R&D Systems, Cat Nr:1026-GR) at 1 μg/ml in PBS overnight at 4° C. Plates were washed 5 times with PBS/0.05% Tween-20. Plates were blocked for 2 hrs at room temperature using PBS+1% Caseine. A dilution serie of biotinylated human or mouse IFN-γ was incubated for 1 hr at room temperature. Plates were washed 5 times with PBS/0.05% Tween-20. Binding was detected using Extravidin-AP and pNPP. Plates were read at 405 nm after 30 minutes incubation at room temperature.

mouse IFN-gamma = target: B5; assay: ELISA screening of selected clones on captured biotinylated mouse IFN-γ (Examples 7 and 8)
Method: To examine the clones selected using biotinylated human or mouse IFN-γ, wells were coated with neutravidine at a concentration of 2 μg/ml overnight at 4° C. Plates were washed 5 times with PBS/0.05% Tween-20. Wells were blocked with 1% caseine for 2 hrs at room temperature. Biotinylated mouse or human IFN-γ at a concentrabon of 1 μg/ml was captured overnight at 4° C. Plates were washed 5 times with PBS/0.05% Tween-20. Culture supernatant (⅓ diluted) was applied to the wells. Detection was performed using anti-c-myc antibody, followed by anti-mouse-HRP and ABTS/H₂O₂ as substrate. Plates were read at 405 nm after 30 minutes incubation at room temperature.

B1: MP3A7SRA (VHH)
VHH: QVQLQDSGGGLVQAGGSLRLSCAASGRTFSSFRMGWFRRAPGEEREFVAFVRSNGTSTYYADSVEGRFTITRDNAKNTVYLRMDSLKPEDTAVYYCAAATRDYGGSFDYWGQGTQVIVSS
Human IFN-gamma [1]
  IC50 (nM), cell-based inhibition assay (FS4 cells treated with IFN-γ pre-incubated with VHH, EMC virus, MTT): 9000 nM
Human IFN-gamma [2]
  IC50: 5 µg/mL

B2: MP3C7SRA (VHH)
VHH: QVQLQESGGGLVQAGDSLRLSCAASGRSFSSYGMGWFRQAPGKEHEFVAGIWRSGVSLYYADSVKGRFTISRDDAKMTVSLQMNSLKPEDTAVYYCAAEATFPTWNRGRFADYDYSGQGTQVTVSS
Human IFN-gamma [1]
  IC50 (nM), cell-based inhibition assay (FS4 cells treated with IFN-γ pre-incubated with VHH, EMC virus, MTT): 7500 nM
Human IFN-gamma [2]
  IC50: > 200 µg/mL

B3: MP3F1SRA (VHH)
VHH: QVQLQESGGGLVQAGGSLTLSCVASGRTISDYAVGWFRQAPGKEREFVASISWGGGFTAFADSMKGRFTISRDNAKNTVYLQTHTLEPDDTSVYYCASSRRYCTGYRCYATASEFDSWGQGTQVTVSS
Human IFN-gamma [1]
  IC50 (nM), cell-based inhibition assay (FS4 cells treated with IFN-γ pre-incubated with VHH, EMC virus, MTT): 9000 nM
Human IFN-gamma [2]
  IC50: 8 µg/mL

B4: MP2F6SR (VHH)
VHH: QVKLEESGGGLVQAGGSLRLSCAASGRTFNNYNMGWFRQAPGKEREFVAAISWNGGSTYYDDSVKGRFTISRDNANNLVYLQMNSLNFEDTAVYYCACAANPYGIPQYRENRYDFWGQGTQVTVSS
Human IFN-gamma [1]
  IC50 (nM), cell-based inhibition assay (FS4 cells treated with IFN-γ pre-incubated with VHH, EMC virus, MTT): 1500 nM
Human IFN-gamma [2]
  IC50: 1.75 µg/mL

## B5
[3]
  binding result: binds

B6: MP3B1SRA (VHH)
VHH: QVQLQESGGGLVQPGGSLRLSCAASGFTSSNYAMSWVRQAPGKGLEWVSSINSRTGSITYADSVKGRFTITLDNAKNTLYLQMNSLKPEDTAVYYCASRVDDRVSRGQGTQVTVSS
Human IFN-gamma [1]
  IC50 (nM), cell-based inhibition assay (FS4 cells treated with IFN-γ pre-incubated with VHH, EMC virus, MTT): 9000 nM
Human IFN-gamma [2]
  IC50: 20 µg/mL

B7: MP4C10SR (VHH)
VHH: QVQLQESGGGLVQPGGSLRLSCAASGFTVSNYAMSWVRQPPGKGIEWVSSINNRNDHITYADSVKGRFTIARDNANNILYLQMNSLKPEDTAVYYCASRVDDRVSRGQGTQVTVSS
Human IFN-gamma [1]
  IC50 (nM), cell-based inhibition assay (FS4 cells treated with IFN-γ pre-incubated with VHH, EMC virus, MTT): 200000 nM
Human IFN-gamma [2]
  IC50: > 200 µg/mL

B8: MP6 B10 BR (VHH)
VHH: QVQLQDSGGGLVQLGGSLRLSCAISGRILGSYAVGWFRQAPGKERQFVAAIGWSYGNTYYADSVKGRFTISRDNAKNTVYLQINSLKPEDTAVYYCAAGDTYLTGRPNEYAYWGQGTQVTVSS
notes: Llama VHH selected on mouse IFN-γ
Mouse IFN-gamma
  binding result: binds

B9: MP6 D6 BR (VHH)
VHH: QVQLQESGGGLVQAGGSLRLSCAVSGSIFSLLAMGWFRQAPGKERELVASVSTHSNTNYADSVKGRFTISRDNAKNTVYLQMNSLKPEDTAVYYCNAGGRYSARVYWGQGTQVTVSS
notes: as for B8
Mouse IFN-gamma
  binding result: binds

B10: MP6 B1 BR (VHH)
VHH: QVQLQESGGGLVQAGGSLRLSCAASGFTSDDYAIGWFRQAPGKEREGVSCISSSDGVTYYADSVKGRFTISSDNAKNTVYLQMNSLKPEDTAVYYCAADSLPLCFSGSYYHPYEYDYLGQGTQVTVSS
notes: as for B8
Mouse IFN-gamma
  binding result: binds

B11: MP2F1BR (VHH)
VHH: AVQLVESGGGLVQTGDSLRLSCVASGGTFSRYAMGWFRQAPGKEREFVARIGYSGRSISYATSVEGRFAISRDNAKNTVYLQMNSLKPEDTAVYYCASLVSGTLYQADYWGQGTQVTVSS
Human IFN-gamma [1]
  IC50 (nM), cell-based inhibition assay (FS4 cells treated with IFN-γ pre-incubated with VHH, EMC virus, MTT): 5000 nM
Human IFN-gamma [2]
  IC50: 8 µg/mL

B12: MP3C1SR (VHH)
VHH: QVQLQDSGGGLVQAGGSLRLSCAAAGISGSVFSRTPMGWYRQAPGKQRELVAGILSSGATVYAESVKGRFTISRDNAKNTVYLQMNSLSPEDTAEYYCNTYPTWVLSWGQGTQVTVSS
Human IFN-gamma [1]
  IC50 (nM), cell-based inhibition assay (FS4 cells treated with IFN-γ pre-incubated with VHH, EMC virus, MTT): 9000 nM
Human IFN-gamma [2]
  IC50: > 200 µg/mL

B13: MP3D2BR (VHH)
VHH: QVQLQESGGGLVQPGESLRLSCAASRGIFRFNAGGWYRQAPGKQRELVAFIGVDNTTRYIDSVKGRFTISRDNAKTTVYLQMNSLQPEDTAVYYCNKVPYIDWGQGTQVTVSS
Human IFN-gamma [1]
  IC50 (nM), cell-based inhibition assay (FS4 cells treated with IFN-γ pre-incubated with VHH, EMC virus, MTT): 9000 nM
Human IFN-gamma [2]
  IC50: 4 µg/mL

B14: MP6 A8 BR (VHH)
VHH: QVQLQESGGGLVQAGGSLRLSCAASGFTFDDYAIGWFRQAPGKELEGVSMINSGGGSTYYADSVKGRFTISSDNAKNTVYLQMNSLKPEDTAVYYCAADQNARLFRLWVVTGTGPVDNALDAWGQGTLVTVSS
notes: as for B8
Mouse IFN-gamma
  binding result: binds

B15: MP6 C11 BR (VHH)
VHH: QVQLQESGGGLVQAGGSLRLSCAASGRTFSTYAMGWFRQAPGKEREFVAGITSSGGYTYYADSVKGRFTISRDNAKNTVYLQMNSLKPEDTAVYYCAAGFRVGIALDLKGRYDYWGQGTQVTVSS
notes: as for B8
Mouse IFN-gamma
  binding result: binds

B16: MP2F6SR/MP2F6SR (VHH)
chain: QVKLEESGGGLVQAGGSLRLSCAASGRTFNNYNMGWFRQAPGKEREFVAAISWNGGSTYYDDSVKGRFTISRDNANNLVYLQMNSLNFEDTAVYYCACAANPYGIPQYRENRYDFWGQGTQVTVSSEPKTPKPQPAAAQVKLEESGGGLVQAGGSLRLSCAASGRTFNNYNMGWFRQAPGKEREFVAAISWNGGSTYYDDSVKGRFTISRDNANNLVYLQMNSLNFEDTAVYYCACAANPYGIPQYRENRYDFWGQGTQVTVSS
Human IFN-gamma [1]
  IC50 (nM), cell-based inhibition assay (FS4 cells treated with IFN-γ pre-incubated with VHH, EMC virus, MTT): 0.15 nM

B17: MP6 B12 BR (VHH)
VHH: QVQLQESGGGLVQAGGSLRLSCAASGFTFDDYDIGWFRQAPGKEREEVSCISNIDGSTYYADSVKGRFTISSDNAKNTAYLQMSSLKPEDTAVYYCAADIYVRCVHGLSPGYWGQGIQVTVSS
notes: as for B8
Mouse IFN-gamma
  binding result: binds
